The results in this text go back to the supplement of paper PMC9170038.

For the data set, the system named is MS2 coat protein. Briefly: apparent KD of MS2 coat protein; designed switch direction (-1 OFF switch, 1 ON switch): 1; higher = weaker reporter binding. A digest of the protocol: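 Stalled E. coli RNA polymerase transcribed designed RNA switches on Illumina chips, which were then titrated with SNAP-549-labelled MS2 coat protein, doubling from 0.7 or 1.5 nM to 3 µM. Steps lasted from 0.8–1.5 h at the lowest concentration to 10–20 min at the highest. The apparent KD is each design's median over clusters of curve-fitted normalised fluorescence.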

The mark [1] stands for this setting: input ligand: microRNA oligo, concentration not stated.
Setting [2] is: Eterna round: R95, input ligand: FMN 200 uM.
[3] abbreviates: Eterna round: R95, input ligand: microRNA oligo, concentration not stated.
Where [4] appears, read: Eterna round: R95, input ligand: none.

In the case of “GUGGUCAGACAUGAGGAUCACCCAUGUGGAAUAAAUAACGGACAGGAUAUUGAAUAUAGGAUAUACAAGAAGGGUUGAUUGGUG (Eterna round: R96, puzzle: Same State NG 3)”, the “apparent KD of MS2 coat protein” value amounted to 0.0836 µM (input ligand: FMN 200 uM), 0.0477 µM under setting [1] and 0.0739 µM (input ligand: none).

Consider “UGGUACAUGCGAGGAUAUGGGUUGAUGACAUGAGGAUCACCCAUGUUAAAUAUGCCGAGAGGCACCUAGAAGGCGCAUGUACCU [MOD2 of JL SSNG1 3.99] (Eterna round: R96, puzzle: Same State NG 2)”, for which the “apparent KD of MS2 coat protein” value by setting is: (input ligand: FMN 200 uM) 0.0104 µM; under setting [1], 0.023 µM; (input ligand: none) 0.0369 µM.

Take “GCGAAAGCAGGAGGAUAUGCAGAGGAUCACCCUGUAGAAGGCCACAGAGGAGGAUAUGCAGAGGAUCACCCUGUAGAAGGCCAC [pwkr ssNG DX.17] (Eterna round: R96, puzzle: Same State NG 1)”: the “apparent KD of MS2 coat protein” value reads like this: (input ligand: FMN 200 uM) 0.176 µM; under setting [1], 0.262 µM; (input ligand: none) 0.303 µM.

Turning to “AGAGCCGGCACUGAGGAUAUUCAUAUUAAAACAUGAGGAUCACCCAUGUAGGCCAGAAGGCCUUGGGAGAAGGCAGGUCGGCUCA [Mat - Same State 2 - Mod of UCT - D58] (puzzle: Same State 2)”, the “apparent KD of MS2 coat protein” value was 0.0252 µM under setting [2], 0.212 µM under setting [3] and 0.484 µM under setting [4].

With “GGUGCGAAUAAAGCCUACAUGAGGAUCACCCAUGUAUGUAGGCAGGAUAUCGUAUGCAAAGCAUACGAGAAGGGCUGUCGCACC [Mat - Same State NG 3 - JL Mod - D47] (Eterna round: R96, puzzle: Same State NG 3)”, the “apparent KD of MS2 coat protein” value by setting is: (input ligand: FMN 200 uM) 0.0301 µM; under setting [1], 0.0569 µM; (input ligand: none) 0.0858 µM.

On to “AGCUAUUAAUCAGGAUAUGGUCACAUGAGGAUCACCCAUGUAUAGAUGAUAAAAUGUGGUCAAUACUAGAAGGGAUUGCUAACA [SameState NG2 #63] (Eterna round: R96, puzzle: Same State NG 2)”, for which the “apparent KD of MS2 coat protein” value (input ligand: FMN 200 uM) amounted to 0.433 µM, the “apparent KD of MS2 coat protein” value under setting [1] was found to be 0.266 µM and the “apparent KD of MS2 coat protein” value (input ligand: none) stood at 0.386 µM.

For “UGUUGUAUUACAGGAUAUCUAUGAUUAUUAUUUAGAGAAGGGUAUUCACAUGAGGAUCACCCAUGUAUAUACGAGGAAGUUGUG [JMF's solution 59] (Eterna round: R96, puzzle: Same State NG 1)”, the “apparent KD of MS2 coat protein” value under setting [1] is 0.0312 µM.

Turning to “UGUUGUAUUACAGGAUAUCUAGUAUUUUUUUUUAGAGAAGGGUAUUCACAUGAGGAUCACCCAUGUAUAUACGAGGAAGUUGUG [JMF's solution 46] (Eterna round: R96, puzzle: Same State NG 1)”, the “apparent KD of MS2 coat protein” value under setting [1] is 0.0461 µM.

Take “GGUAGGUUACUACCAAUACAUGAGGAUCACCCAUGUUAUCAUGAGGAUAUGGUACCUAUUUGGUACCAGAAGGCAUGUAUAAUU [Fiskers NG3ss - 19] (Eterna round: R96, puzzle: Same State NG 3)”: the “apparent KD of MS2 coat protein” value reads like this: (input ligand: FMN 200 uM) 0.0436 µM; under setting [1], 0.0626 µM; (input ligand: none) 0.0605 µM.

For the sequence “UGGCUGGUGCUAGGAUAUGCAUGAGGCCUCCUCGUAGAAGGAGCGCGACAUGAGGAUCACCCAUGUAGCCGUCCGUAGACGGCU [salish99_SSNG1_r04_012] (Eterna round: R96, puzzle: Same State NG 1)”, the “apparent KD of MS2 coat protein” value (input ligand: FMN 200 uM) is 0.165 µM, the “apparent KD of MS2 coat protein” value under setting [1] is 0.1 µM and the “apparent KD of MS2 coat protein” value (input ligand: none) was 0.193 µM.

“AUGUGUUUGCGAGGAUAUCGUUUGUUGAAGUUACGAGAAGGCGCUCACUUUACAUGAGGAUCACCCAUGUCUUUGAUGCAUGAU [JR_SSNG1_Sub073] (Eterna round: R96, puzzle: Same State NG 1)”: the “apparent KD of MS2 coat protein” value is, setting by setting: (input ligand: FMN 200 uM) 0.0466 µM; under setting [1], 0.0402 µM; (input ligand: none) 0.0441 µM.

In the case of “GGAUGAUAGACAGGAUAUUGAUUGUAAUUAGGACAAGAAGGGUCAAUGAUUUAAACGACCAGUUACAUGAGGAUCACCCAUGUU [JR_SSNG1_Sub026] (Eterna round: R96, puzzle: Same State NG 1)”, the “apparent KD of MS2 coat protein” value runs as follows: (input ligand: FMN 200 uM) 0.0557 µM; under setting [1], 0.034 µM; (input ligand: none) 0.0553 µM.

Turning to “AGUCCAGCCUGAGCUGGACAAAAGCAUGUACAUGAGGAUCACCCAUGUCAUGUACAAGUUUUUUGCUCGUCUUAAAA [Zipper 46 - 11] (puzzle: Sensor for hsa-mir-208a)”, the “apparent KD of MS2 coat protein” value by setting is: under setting [2], 0.0377 µM; under setting [3], 0.013 µM; under setting [4], 0.0406 µM.

In the case of “CAGCGCUGUCGAGAGGAUAUGCGGUGAUGGACAUGAGGAUCACCCAUGUUAGCGACAGCAUCACGGCAGAAGGCUCUACCGCUGC [Soteed Omei mod 18] (puzzle: Same State 2)”, the “apparent KD of MS2 coat protein” value worked out at 0.0193 µM under setting [2], 0.0188 µM under setting [3] and 0.0303 µM under setting [4].

As to “GCUCGAUGAGCGUCCUACAUGAGGAUCACCCAUGUUCGUGGGCAGGAUAUUUACAUGCAGAGUGUAGAGAAGGGCCCAUCGAGC [SameState NG3 #65] (Eterna round: R96, puzzle: Same State NG 3)”, the “apparent KD of MS2 coat protein” value is, setting by setting: (input ligand: FMN 200 uM) 0.546 µM; under setting [1], 0.482 µM; (input ligand: none) 0.477 µM.

With “ACAUUUAGCUCGUGCACAUGAGGAUCACCCAUGUUCAGUUCACAGGAUAUCUAGUCAAACGGAUCGGAGAAGGGUGGCAGGAGC [Quceon] (Eterna round: R96, puzzle: Same State NG 3)”, the “apparent KD of MS2 coat protein” value (input ligand: FMN 200 uM) was found to be 0.0399 µM, the “apparent KD of MS2 coat protein” value under setting [1] is 0.121 µM and the “apparent KD of MS2 coat protein” value (input ligand: none) amounted to 0.123 µM.

On to “UUUAGUUGCGGGCAGGAUAUGUAUUAAUAUACAUGAGGAUCACCCAUGUGCGGGUAUAACACCCGACAGAAGGGCCAAUCGCGAC [Laonerce - 5] (puzzle: Same State 2)”, for which the “apparent KD of MS2 coat protein” value by setting is: under setting [2], 0.0283 µM; under setting [3], 0.302 µM; under setting [4], 0.389 µM.

On to “GUGGCGGGUUGAGGAUAUUGGUUGCCUCUGUUUUACAUGAGGAUCACCCAUGUGGGUUGCGGUUUCGAGAAGGGAGGUUGCUGG [salish99_SSNG2_r04_054] (Eterna round: R96, puzzle: Same State NG 2)”, for which the “apparent KD of MS2 coat protein” value runs as follows: (input ligand: FMN 200 uM) 0.323 µM; under setting [1], 0.42 µM; (input ligand: none) 0.399 µM.

“AGAUCAUGACGAGGAUAUGGUACAUGAGGAUCACCCAUGUAUGUACCACGACGGAAACGUCGAAUCCAGAAGGCGUCGUGGUCA [Mat - Same State NG 2 - JL mod - D22] (Eterna round: R96, puzzle: Same State NG 2)”: the “apparent KD of MS2 coat protein” value runs as follows: (input ligand: FMN 200 uM) 0.0277 µM; under setting [1], 0.115 µM; (input ligand: none) 0.167 µM.

As for “CUGAGCGAUCGAGGAUAUCACGUCGAUUAGACGUGAGAAGGCGAUCAUAACAUGAGGAUCACCCAUGUAUUACAUGAAGCUCAG [SSNG1/4-A2] (Eterna round: R96, puzzle: Same State NG 1)”, the “apparent KD of MS2 coat protein” value was determined as 0.0171 µM (input ligand: FMN 200 uM), 0.0129 µM under setting [1] and 0.0158 µM (input ligand: none).

In the case of “GGUAGGUUACUACCAAACAUGAGGAUCACCCAUGUAAGUGGGAAGGAUAUGGUACCUUUUAGGUACCAGAAGGUCCAUAUAAUU [JL Fiskers NG3ss - 2 mod 6] (Eterna round: R96, puzzle: Same State NG 3)”, the “apparent KD of MS2 coat protein” value reads like this: (input ligand: FMN 200 uM) 0.177 µM; under setting [1], 2.45 µM; (input ligand: none) 3.22 µM.

For the sequence “UUGAAGAAUUAAGGAUAUUGAGUACAUAUGUUUAACAUGAGGAUCACCCAUGUGGGUUGCGGUAUCGAGAAGGUAAAUUAAUAG [Mat - same State NG 2 - JL mod - D66] (Eterna round: R96, puzzle: Same State NG 2)”, the “apparent KD of MS2 coat protein” value by setting is: (input ligand: FMN 200 uM) 0.0944 µM; under setting [1], 0.126 µM; (input ligand: none) 0.157 µM.

Turning to “AACGUGUAGGAAGGAUAUAUUGUUCAAGGGAUUGCAAUCUCUAACAUGAGGAUCACCCAUGUAGAGUAGAAGGUCCACCGCAGG [Eternabot solution 40] (Eterna round: R96, puzzle: Same State NG 2)”, the “apparent KD of MS2 coat protein” value was 0.0141 µM (input ligand: FMN 200 uM), 0.0135 µM under setting [1] and 0.0192 µM (input ligand: none).

Take “AUAAGUUCGAUGCUCGUCUCUCCGUACAAACAUGAGGAUCACCCAUGUGAUUAGGCAGUAGCCCAAUCAGUAUGGCC [Ariusveri] (puzzle: Sensor for hsa-mir-208a)”: the “apparent KD of MS2 coat protein” value worked out at 0.0387 µM under setting [2], 0.0218 µM under setting [3] and 0.0434 µM under setting [4].

As for “AUUAAACAUGAGGAUCACCCAUGUCAACAAAGUCGAGGAUAUGGGCAAAUAUAAUAAGAACCAGAAGGCGAAUAAU [salish99_ss1_r3_059] (puzzle: Same State 1)”, the “apparent KD of MS2 coat protein” value reads like this: under setting [2], 0.028 µM; under setting [3], 0.19 µM; under setting [4], 0.227 µM.

“GUGGUCAGACAUGAGGAUCACCCAUGUGGAAUAAAUAAGGAAGAGGAUAUCGAAUAUAGGAUAUACGAGAAGGUUUGGUUGGUG (Eterna round: R96, puzzle: Same State NG 3)”: the “apparent KD of MS2 coat protein” value came out at 0.117 µM (input ligand: FMN 200 uM), 0.0775 µM under setting [1] and 0.0946 µM (input ligand: none).

In the case of “UUAAUUAAUUAAUUAUACAUGAGGAUCACCCAUGUAAGUGAUCAGGAUAUCAGCUCGUUUAGAGCUGAGAAGGGAUACAUGAAU [SSNG3/12-A3] (Eterna round: R96, puzzle: Same State NG 3)”, the “apparent KD of MS2 coat protein” value came to 0.0916 µM (input ligand: FMN 200 uM), 0.0859 µM under setting [1] and 0.143 µM (input ligand: none).
